# Literature values, collected in patent US20010039026A1, “Assay method” (priority 2000, published 2001).
# B1: MIP-1-β: macrophage inflammatory protein, β-chemokine ligand of CCR5 (protein, UniProt P13236 24-92, looked up)
# C-C motif chemokine 4: APMGSDPPTACCFSYTARKLPRNFVVDYYETSSLCSQPAVVFQTKRSKQVCADPSESWVQEYVYDLELN
# Columns and labels:
# CCCKR5 = target: T1, CCCKR5 (Homo sapiens, UniProt P51681); settings: transfected CHO-K1 cells
# T1 construct: expressed in transfected cells; host or cells: CHO-K1 (stably transfected)
# T1 sequence (P51681 whole entry): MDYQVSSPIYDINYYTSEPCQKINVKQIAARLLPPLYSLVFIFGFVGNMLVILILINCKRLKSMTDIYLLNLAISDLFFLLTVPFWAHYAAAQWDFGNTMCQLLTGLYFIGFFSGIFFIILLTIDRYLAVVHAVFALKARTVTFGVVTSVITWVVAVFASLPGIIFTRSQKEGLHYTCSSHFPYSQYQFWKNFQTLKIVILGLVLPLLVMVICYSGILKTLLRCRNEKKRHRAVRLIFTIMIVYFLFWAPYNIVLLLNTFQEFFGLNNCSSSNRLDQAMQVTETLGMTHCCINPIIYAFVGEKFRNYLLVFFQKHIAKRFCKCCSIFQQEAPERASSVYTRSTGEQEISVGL
# [1] = system: env-mediated cell-cell fusion
# [2] = system: primary, nonsyncytium-inducing (NSI) HIV-1 strains; settings: primary NSI HIV-1 strains
molecule,measurement,setting,value
B1,agonist activity at CCCKR5,CCCKR5,active at physiologic concentrations
same,block of env-mediated cell-cell fusion,[1],block env-mediated cell-cell fusion
same,inhibition of infection of CD4(+) cells at the virus entry stage,[2],inhibit infection
